Test results: article PMC11865173, “Improving the hydrophilic microenvironment surrounding the catalytic site of fructosyltransferase enhances its catalytic ability” (Biotechnology Letters, 2025)

B1: SucC (Aspergillus niger) (protein)
chain: MQTRASVVIDYNVAPPNLSTLPNGSLFETWRPRAHVLPPNGQIGDPCLHYTDPSTGLFHVGFLHDGSGISSATTDDLATYKDLNQGNQVIVPGGINDPVAVFDGSVIPSGINGLPTLLYTSVSFLPIHWSIPYTRGSETQSLAVSSDGGSNFTKLDQGPVIPGPPFAYNVTAFRDPYVFQNPTLDSLLHSKNNTWYTVISGGLHGKGPAQFLYRQYDPDFQYWEFLGQWWHEPTNSTWGNGTWAGRWAFNFETGNVFSLDEYGYNPHGQIFSTIGTEGSDQPVVPQLTSIHDMLWVSGNVSRNGSVSFTPNMAGFLDWGFSSYAAAGKVLPSTSLPSTKSGAPDRFISYVWLSGDLFEQAEGFPTNQQNWTGTLLLPRELRVLYIPNVVDNALARESGASWQVVSSDSSAGTVELQTLGISIARETKAALLSGTSFTESDRTLNSSGVVPFKRSPSEKFFVLSAQLSFPASARGSGLKSGFQILSSELESTTVYYQFSNESIIVDRSNTSAAARTTDGIDSSAEAGKLRLFDVLNGGEQAIETLDLTLVVDNSVLEIYANGRFALSTWVRSWYANSTNISFFQNGVGGVAFSNVTVSEGLYDAWPDRQS
notes: codon-optimised synthetic gene downstream of alpha-factor in pPIC9K, secreted from Pichia pastoris GS115; purified by size exclusion chromatography; model covers residues 25-628; no tag mentioned

Tests used:
[1] = tested on: T1, OC[C@H]1O[C@@](CO)(O[C@H]2O[C@H](CO)[C@@H](O)[C@H](O)[C@H]2O)[C@@H](O)[C@@H]1O; assay: glucose release measured by biosensor, Michaelis-Menten nonlinear fit; format: biochemical, Aspergillus niger; settings: 50 °C, pH 5.5, 5 min, transfructosylation
T1 construct: codon-optimised synthetic gene downstream of alpha-factor in pPIC9K, secreted from Pichia pastoris GS115; purified by size exclusion chromatography; model covers residues 25-628; no tag mentioned
Description: (§1) glucose release measured by biosensor, Michaelis-Menten nonlinear fit on SucC

[2] = substrate: OC[C@H]1O[C@@](CO)(O[C@H]2O[C@H](CO)[C@@H](O)[C@H](O)[C@H]2O)[C@@H](O)[C@@H]1O; assay: as above; format: biochemical, Aspergillus niger; settings: 50 °C, pH 5.5, 5 min, transfructosylation
Description: as §1

Molecule	Km [1] [mM]	kcat [1] [s⁻¹]	kcat/Km [1] [M⁻¹ s⁻¹]	Km [2] [mM]	kcat [2] [s⁻¹]	kcat/Km [2] [M⁻¹ s⁻¹]
SucC (Aspergillus niger; C66S)	71.14	2.27	32			
B1				82.20	1.87	22.8
